{"source": "paper PMC9519731", "about": "“The soluble form of CD160 acts as a tumor mediator of immune escape in melanoma” (Cancer Immunology, Immunotherapy : CII, 2022)", "molecular_target": "the molecule itself", "experiment": "immunoprecipitation, non-reducing SDS-PAGE and Western blot; culture supernatants of confluent melanoma cell lines immunoprecipitated with H3 mAb, SDS-10% PAGE under non-reducing condition, blot with HRP-coupled H3 mAb"}
{"protein": "soluble form of CD160 (sCD160) released by melanoma cell lines (natural protein, UniProt O95971 25-159, looked up, soluble form of CD160, derived from the CD160-GPI isoform, released by human melanoma cell lines; recovered as a 55-kDa species called dimeric sCD160; also called secreted sCD160; sCD160 produced by WM1361; source: endogenous, culture supernatant of melanoma cell lines (WM1361, COLO829, SKMEL5)) GCINITSSASQEGTRLNLICTVWHKKEEAEGFVVFLCKDRSGDCSPETSLKQLRLKRDPGIDGVGEISSQLMFTISQVTPLHSGTYQCCARSQKSGIRLQGHFFSILFTETGNYTVTGLKQRQHLEFSHNEGTLS", "values": [{"measurement": "stoichiometry N", "result": 2}]}
